From patent US20250170268A1 (Merck KGaA, published 2025)

Molecular target: T1, Human CEACAM5 protein (human, UniProt P06731 35-702)
T1 sequence: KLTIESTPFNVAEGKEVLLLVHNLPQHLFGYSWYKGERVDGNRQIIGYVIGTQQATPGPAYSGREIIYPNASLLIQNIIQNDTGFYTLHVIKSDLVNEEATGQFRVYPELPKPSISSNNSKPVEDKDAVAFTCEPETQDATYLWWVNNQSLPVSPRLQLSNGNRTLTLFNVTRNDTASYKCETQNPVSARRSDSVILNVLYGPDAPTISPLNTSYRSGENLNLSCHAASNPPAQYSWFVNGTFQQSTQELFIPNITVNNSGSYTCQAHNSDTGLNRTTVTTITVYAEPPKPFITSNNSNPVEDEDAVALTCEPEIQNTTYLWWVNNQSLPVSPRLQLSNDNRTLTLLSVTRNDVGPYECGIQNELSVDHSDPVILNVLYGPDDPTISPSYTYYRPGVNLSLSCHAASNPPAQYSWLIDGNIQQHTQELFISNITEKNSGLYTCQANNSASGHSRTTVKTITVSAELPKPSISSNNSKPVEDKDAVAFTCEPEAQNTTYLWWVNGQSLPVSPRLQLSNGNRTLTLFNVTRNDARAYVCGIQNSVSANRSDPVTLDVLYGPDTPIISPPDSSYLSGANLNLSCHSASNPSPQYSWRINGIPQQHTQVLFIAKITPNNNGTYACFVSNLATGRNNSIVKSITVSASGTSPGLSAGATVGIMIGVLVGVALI
Assay: cell-based or functional assay

SPECIFICITY FACTOR (IC50 in MDA-MB-231 divided by IC50 in MKN-45): 2.5 fold | SPECIFICITY FACTOR (IC50 in MDA-MB-231 divided by IC50 in SK-CO-1): 4.8 fold | SPECIFICITY FACTOR (IC50 in MDA-MB-231 divided by IC50 in SNU-16): 1.8 fold
B1: ADC8 (an analog of labetuzumab govitecan) (antibody, human IgG1, kappa)
heavy: not shown
light: DIQLTQSPSSLSASVGDRVTITCKASQDVGTSVAWYQQKPGKAPKLLIYWTSTRHTGVPSRFSGSGSGTDFTFTISSLQPEDIATYYCQQYSLYRSFGQGTKVEIKRTVAAPSVFIFPPSDEQLKSGTASVVCLLNNFYPREAKVQWKVDNALQSGNSQESVTEQDSKDSTYSLSSTLTLSKADYEKHKVYACEVTHQGLSSPVTKSFNRGEC
modifications: purchased drug-linker on reduced interchain cysteines; purchased drug-linker on reduced interchain cysteines, DAR of 7.7 for the whole antibody
